# Data from US20200297818A1 (ZEALAND PHARMA A S, published 2020).
# Substitutions are numbered along the chain they refer to. *1 amine or outer side, *2 acyl side, *3 side chain or, on linkers, in order; H or OH if unused. Where no end group is shown, it is not given here. Side-chain parts run from the residue outwards. [ ]: non-standard residue; d: D form. The star is where a group is joined. C20 diacid = O=C(O)CCCCCCCCCCCCCCCCCCC(=O)*; C18 diacid = O=C(O)CCCCCCCCCCCCCCCCC(=O)*; γGlu = O=C(O)[C@H](CCC(=O)[*:2])N[*:1]; AEEA = NCCOCCOCC(=O)O; Aib = CC(C)(N)C(=O)O
# T1: human GLP-2 receptor (hGLP2-R) (human, UniProt O95838 1-553)
# T1 sequence (looked up): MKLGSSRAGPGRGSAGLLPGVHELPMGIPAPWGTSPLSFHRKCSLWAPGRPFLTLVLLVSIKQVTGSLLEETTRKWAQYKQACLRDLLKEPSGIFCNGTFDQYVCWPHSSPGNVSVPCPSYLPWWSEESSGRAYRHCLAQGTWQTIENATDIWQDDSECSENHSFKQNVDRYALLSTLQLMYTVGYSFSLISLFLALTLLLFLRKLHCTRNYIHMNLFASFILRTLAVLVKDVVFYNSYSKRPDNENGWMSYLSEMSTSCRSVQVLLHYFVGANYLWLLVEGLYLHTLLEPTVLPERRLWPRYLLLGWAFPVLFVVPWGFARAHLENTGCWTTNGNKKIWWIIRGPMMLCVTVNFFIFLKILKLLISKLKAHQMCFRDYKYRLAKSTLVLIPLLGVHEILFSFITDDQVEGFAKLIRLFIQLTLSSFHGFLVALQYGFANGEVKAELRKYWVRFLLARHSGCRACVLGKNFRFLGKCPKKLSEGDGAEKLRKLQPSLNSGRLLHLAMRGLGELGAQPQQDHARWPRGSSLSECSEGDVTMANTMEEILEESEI
# B1: Compound 3 (peptide)
# peptide: HXEGTFTSELATILDXEAARDFIAWLIEHKITD
# HELM: PEPTIDE1{H.[Aib].E.G.T.F.T.S.E.L.A.T.I.L.D.K.E.A.A.R.D.F.I.A.W.L.I.E.H.K.I.T.D}|PEPTIDE2{[O=C(O)CCCCCCCCCCCCCCCCC(=O)[*:2]].[gGlu]}$PEPTIDE1,PEPTIDE2,16:R3-2:R2$$$V2.0
# SMILES: CC[C@H](C)[C@H](NC(=O)[C@H](Cc1ccccc1)NC(=O)[C@H](CC(=O)O)NC(=O)[C@H](CCCNC(=N)N)NC(=O)[C@H](C)NC(=O)[C@H](C)NC(=O)[C@H](CCC(=O)O)NC(=O)[C@H](CCCCNC(=O)CC[C@H](NC(=O)CCCCCCCCCCCCCCCCC(=O)O)C(=O)O)NC(=O)[C@H](CC(=O)O)NC(=O)[C@H](CC(C)C)NC(=O)[C@@H](NC(=O)[C@@H](NC(=O)[C@H](C)NC(=O)[C@H](CC(C)C)NC(=O)[C@H](CCC(=O)O)NC(=O)[C@H](CO)NC(=O)[C@@H](NC(=O)[C@H](Cc1ccccc1)NC(=O)[C@@H](NC(=O)CNC(=O)[C@H](CCC(=O)O)NC(=O)C(C)(C)NC(=O)[C@@H](N)Cc1c[nH]cn1)[C@@H](C)O)[C@@H](C)O)[C@@H](C)O)[C@@H](C)CC)C(=O)N[C@@H](C)C(=O)N[C@@H](Cc1c[nH]c2ccccc12)C(=O)N[C@@H](CC(C)C)C(=O)N[C@H](C(=O)N[C@@H](CCC(=O)O)C(=O)N[C@@H](Cc1c[nH]cn1)C(=O)N[C@@H](CCCCN)C(=O)N[C@H](C(=O)N[C@H](C(=O)N[C@@H](CC(=O)O)C(=O)O)[C@@H](C)O)[C@@H](C)CC)[C@@H](C)CC
# B2: Compound 5 (peptide)
# peptide: B1 peptide with T5S, E17K
# HELM: PEPTIDE1{H.[Aib].E.G.S.F.T.S.E.L.A.T.I.L.D.K.K.A.A.R.D.F.I.A.W.L.I.E.H.K.I.T.D}|PEPTIDE2{[O=C(O)CCCCCCCCCCCCCCCCC(=O)[*:2]].[gGlu]}$PEPTIDE1,PEPTIDE2,16:R3-2:R2$$$V2.0
# SMILES: CC[C@H](C)[C@H](NC(=O)[C@H](Cc1ccccc1)NC(=O)[C@H](CC(=O)O)NC(=O)[C@H](CCCNC(=N)N)NC(=O)[C@H](C)NC(=O)[C@H](C)NC(=O)[C@H](CCCCN)NC(=O)[C@H](CCCCNC(=O)CC[C@H](NC(=O)CCCCCCCCCCCCCCCCC(=O)O)C(=O)O)NC(=O)[C@H](CC(=O)O)NC(=O)[C@H](CC(C)C)NC(=O)[C@@H](NC(=O)[C@@H](NC(=O)[C@H](C)NC(=O)[C@H](CC(C)C)NC(=O)[C@H](CCC(=O)O)NC(=O)[C@H](CO)NC(=O)[C@@H](NC(=O)[C@H](Cc1ccccc1)NC(=O)[C@H](CO)NC(=O)CNC(=O)[C@H](CCC(=O)O)NC(=O)C(C)(C)NC(=O)[C@@H](N)Cc1c[nH]cn1)[C@@H](C)O)[C@@H](C)O)[C@@H](C)CC)C(=O)N[C@@H](C)C(=O)N[C@@H](Cc1c[nH]c2ccccc12)C(=O)N[C@@H](CC(C)C)C(=O)N[C@H](C(=O)N[C@@H](CCC(=O)O)C(=O)N[C@@H](Cc1c[nH]cn1)C(=O)N[C@@H](CCCCN)C(=O)N[C@H](C(=O)N[C@H](C(=O)N[C@@H](CC(=O)O)C(=O)O)[C@@H](C)O)[C@@H](C)CC)[C@@H](C)CC
# B3: Compound 7 (peptide)
# peptide: B1 peptide with T7S, X16G, E17X
# HELM: PEPTIDE1{H.[Aib].E.G.T.F.S.S.E.L.A.T.I.L.D.G.K.A.A.R.D.F.I.A.W.L.I.E.H.K.I.T.D}|PEPTIDE2{[O=C(O)CCCCCCCCCCCCCCCCC(=O)[*:2]].[gGlu]}$PEPTIDE1,PEPTIDE2,17:R3-2:R2$$$V2.0
# SMILES: CC[C@H](C)[C@H](NC(=O)[C@H](Cc1ccccc1)NC(=O)[C@H](CC(=O)O)NC(=O)[C@H](CCCNC(=N)N)NC(=O)[C@H](C)NC(=O)[C@H](C)NC(=O)[C@H](CCCCNC(=O)CC[C@H](NC(=O)CCCCCCCCCCCCCCCCC(=O)O)C(=O)O)NC(=O)CNC(=O)[C@H](CC(=O)O)NC(=O)[C@H](CC(C)C)NC(=O)[C@@H](NC(=O)[C@@H](NC(=O)[C@H](C)NC(=O)[C@H](CC(C)C)NC(=O)[C@H](CCC(=O)O)NC(=O)[C@H](CO)NC(=O)[C@H](CO)NC(=O)[C@H](Cc1ccccc1)NC(=O)[C@@H](NC(=O)CNC(=O)[C@H](CCC(=O)O)NC(=O)C(C)(C)NC(=O)[C@@H](N)Cc1c[nH]cn1)[C@@H](C)O)[C@@H](C)O)[C@@H](C)CC)C(=O)N[C@@H](C)C(=O)N[C@@H](Cc1c[nH]c2ccccc12)C(=O)N[C@@H](CC(C)C)C(=O)N[C@H](C(=O)N[C@@H](CCC(=O)O)C(=O)N[C@@H](Cc1c[nH]cn1)C(=O)N[C@@H](CCCCN)C(=O)N[C@H](C(=O)N[C@H](C(=O)N[C@@H](CC(=O)O)C(=O)O)[C@@H](C)O)[C@@H](C)CC)[C@@H](C)CC
# Legend:
# [1] = target: human glucagon-like peptide 1 receptor (GLP-1 R) (human, UniProt P43220 24-463); test: cell-based or functional assay
# [2] = target: T1, human GLP-2 receptor (hGLP2-R); test: cell-based or functional assay
Binder,EC50 GLP-1 (nM); cAMP response [1] [nM],EC50 GLP-2 (nM); cAMP response [2] [nM]
B1,0.042,0.33
B2,0.17,0.063
B3,0.92,0.019
H-H[Aib]EGSFTSELATILDAK([AEEA-AEEA-Lys-Glu-Lys-γGlu-C20 diacid])AARDFIAWLIEHKITD-OH [Compound 63],0.31,0.17
H-H[Aib]EGTFTSELATILDEQAAK([AEEA-Lys-Glu-Lys-γGlu-C20 diacid])DFIAWLIEHKITD-OH [Compound 65],0.13,0.35
H-H[Aib]EGSFTSELATILDEQAAK([AEEA-AEEA-Lys-Glu-Lys-γGlu-C20 diacid])DFIAWLIEHKITD-OH [Compound 66],0.65,0.18
H[Aib]EGTFSSELATILDK([γGlu-C18 diacid])KAARDFIAWLIEHKITD-OH [Compound 4],0.66,0.087
H-H[Aib]EGSFTSELATILDAKAAK([AEEA-Lys-Glu-Lys-γGlu-C20 diacid])DFIAWLIEHKITD-OH [Compound 68],0.084,0.1
H-H[Aib]EGSFTSELATILDEQAAK([AEEA-Lys-Glu-Lys-γGlu-C20 diacid])DFIAWLIEHKITD-OH [Compound 64],0.49,0.2
H[Aib]EGTFTSELATILDK([γGlu-C18 diacid])KAARDFIAWLIEHKITD-OH [Compound 6],0.058,0.12
H-H[Aib]EGTFTSELATILDEQAAK([AEEA-AEEA-Lys-Glu-Lys-γGlu-C20 diacid])DFIAWLIEHKITD-OH [Compound 67],0.16,0.22
